Measurements taken from US8927207B2, “miRNAs as therapeutic targets in cancer” (Research Foundation of State University of New York, priority 2008, dated 2015).

How the values were obtained:
DHFR mRNA = test: real time qRT-PCR of DHFR mRNA; format: cell-based; conditions: U-2 OS cells
Method: Expression levels of TS or DHFR mRNA were analyzed using real time qRT-PCR analysis (FIG. 15).

Bax = test: Western immunoblot of cell cycle control genes, HCT-116 (wt-p53); format: cell-based, human; conditions: 48 hours after transfection
Method: (§1) miR-192 expression is dependent on p53. To further analyze the cell cycle control genes involved in miR-192 overexpression, a number of cell cycle control genes were analyzed (p53, p21, Bax, E2F3, Rb). HCT-116 (wt-p53) cells (FIG. 6A) and RKO (wt-p53) cells (FIG. 6B), as described above (see Example 3), were transfected with non-specific miR (FIG. 6A, lane 2; and FIG. 6B, lane 1), DHFR siRNA (FIG. 6A, lane 3; and FIG. 6B, lane 2) and miR-192 (FIG. 6A, lane 4; and FIG. 6B, lane 3) according to the procedure discussed above (see Examples 1 and 2). Non-transfected HCT-116 (wt-p53) was used as a negative control (FIG. 6A, lane 1). Alpha-tubulin was used as a protein loading control.

p53 = test: as above; format: cell-based, human; conditions: 48 hours after transfection
Method: as §1

p21 = test: as above; format: cell-based, human; conditions: 48 hours after transfection
Method: as §1

B1: miR-192: microRNA miR-192 (SEQ ID NO:1), transfected into cells as miR-192 precursor (Ambion) (nucleic acid)
chain: GCCGAGACCGAGUGCACAGGGCUCUGACCUAUGAAUUGACAGCCAGUGCUCUCGUCUCCCCUCUGGCUGCCAAUUCCAUAGGUCACAGGUAUGUUCGCCUCAAUGCCAGC
modifications: delivered as precursor, further chemistry not given here
DHFR mRNA expression (DHFR mRNA): no reduction | expression of Bax (Bax): not altered | increase in expression of the p53 protein (p53): over 10 fold | increase in expression of p21 (p21): 10 fold
